Test results published in US9035023B2, “Bombesin analog peptide antagonist conjugates” (Piramal Imaging, SA, priority 2008, dated 2015).

How the values were obtained:
GRP receptor [1] = biological target: T1, GRP receptor (Homo sapiens, UniProt P30550); assay: GRP receptor binding affinity by in vitro receptor autoradiography; parameters: host or cells: PC3 cells; details: read-out: BINDING IC50 (nM) mean ± SEM
Protocol: The GRP receptor binding affinity of the various compounds was determined by in vitro receptor autoradiography on cryostat sections of either well characterized prostate carcinomas, or on sections from HEK-GRPR or PC3 cell pellets as described previously (Markwalder et al., Can. Res., 1999; 59, 1152-1159; Reubi et al., Eur. J. Nucl. Med., 2000; 27: 273-282; Reubi et al., Clin. Cancer Res. 2002; 8 1139-1146).

GRP receptor [2] = biological target: T1, GRP receptor; assay: Calcium release assay in PC3 cells (Fluo-4NW); format: cell-based; parameters: host or cells: PC3 cells
Protocol: In brief, PC3 cells were seeded (10,000 cells per well) in 96 well plates and cultured for 2 day at 37° C. and 5% CO2 in culture medium. At the day of the experiment, the cells were washed with assay buffer (1×HBSS, 20 mM HEPES) containing 2.5 mM probenecid, and then loaded with 100 μL/well Fluo-4NW dye in assay buffer containing 2.5 mM probenecid for 30 min at 37° C. and 5% CO2 and then for further 30 min at room temperature. […] Intracellular calcium mobilization was recorded in a kinetic for 60 sec at room temperature monitoring fluorescence emission at 520 nm (with λex=485 nm) in the presence of the analogues at the concentrations indicated. […] Baseline (F-baseline) measurements were taken for dye-loaded, untreated cells. […] All experiments were repeated at least three times in triplicate.

GRP receptor [3] = biological target: T1, GRP receptor; assay: Immunofluorescence microscopy based internalization assay with HEK-GRPR cells; format: cell-based; parameters: expressed in transfected cells; host or cells: HEK293; details: for antagonism of bombesin-induced GRP receptor internalization: 10 nmol/L bombesin + 1 μmol/L analogue; for antagonism of bombesin-induced GRP receptor internalization / GRP receptor internalization, given alone: 30 min; for GRP receptor internalization, given alone: 1 μmol/L
Protocol: Briefly, HEK-GRPR cells were grown on poly-D-lysine (20 μg/ml) (Sigma-Aldrich, St. Louis, Mo.) coated 35 mm four-well plates (Cellstar, Greiner Bio-One GmbH, Frickenhausen, Germany). […] The cells were imaged using a Leica DM RB immunofluorescence microscope and an Olympus DP10 camera.
Following incubation with the peptides, the cells were processed for immunocytochemistry as described in above.

PC-3 tumor [4] = tested on: PC-3 tumor
PC-3 tumor [5] = assay: Biodistribution in PC-3 tumor bearing nude mice
Protocol: Eleven days after inoculation the mice were injected into the tail vein with 10 pmol of radiolabeled peptides (about 0.18 MBq), diluted in NaCl (0.1% bovine serum albumin, pH 7.4, total injected volume=100 μL).

GRP receptor [6] = biological target: T1, GRP receptor; details: cited from earlier work
[7] = 100 μg bombesin or non-radioactive Compound 2

T1 sequence (P30550 whole entry): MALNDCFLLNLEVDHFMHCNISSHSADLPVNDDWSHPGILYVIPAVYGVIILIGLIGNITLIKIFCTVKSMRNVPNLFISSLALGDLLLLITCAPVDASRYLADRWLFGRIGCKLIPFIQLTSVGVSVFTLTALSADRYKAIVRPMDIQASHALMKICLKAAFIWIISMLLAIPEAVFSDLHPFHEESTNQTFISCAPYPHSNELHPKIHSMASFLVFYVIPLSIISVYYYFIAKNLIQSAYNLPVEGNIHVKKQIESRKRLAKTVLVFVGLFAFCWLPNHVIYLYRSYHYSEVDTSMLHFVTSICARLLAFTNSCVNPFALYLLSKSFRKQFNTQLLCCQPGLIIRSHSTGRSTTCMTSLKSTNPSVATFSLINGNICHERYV

For `CC(C)C[C@H](NC(=O)C[C@H](O)[C@H](CC(C)C)NC(=O)[C@H](Cc1c[nH]cn1)NC(=O)CNC(=O)[C@@H](NC(=O)[C@H](C)NC(=O)[C@H](Cc1c[nH]c2ccccc12)NC(=O)[C@H](CCC(N)=O)NC(=O)[C@@H](Cc1ccccc1)NC(=O)c1ccc(NC(=O)CNC(=O)CN2CCN(CC(=O)O)CCN(CC(=O)O)CCN(CC(=O)O)CC2)cc1)C(C)C)C(N)=O` [Compound 1, DOTA-Gly-aminobenzoyl-D-Phe-Gln-Trp-Ala-Val-Gly-His-Sta-Leu-NH2], the IC50 (GRP receptor [1]) was 30 ± 4.5 nM, the “effect on calcium release, tested alone” value (GRP receptor [2]; 1 μmol/L and 10 μmol/L) was “no effect on calcium release” and the “antagonism of bombesin-induced GRP receptor internalization” value (GRP receptor [3]) was “efficiently antagonized”. The “GRP receptor internalization, given alone” value (GRP receptor [3]) was “no effect on GRP receptor internalization”.

With `CC(C)C[C@H](NC(=O)C[C@H](O)[C@H](CC(C)C)NC(=O)[C@H](Cc1c[nH]cn1)NC(=O)CNC(=O)[C@@H](NC(=O)[C@H](C)NC(=O)[C@H](Cc1c[nH]c2ccccc12)NC(=O)[C@H](CCC(N)=O)NC(=O)[C@@H](Cc1ccccc1)NC(=O)c1ccc(NC(=O)CNC(=O)CN2CCN(CC(=O)O)CCN(CC(=O)O)CCN(CC(=O)O)CC2)cc1)C(C)C)C(N)=O` [^115In-1] the IC50 (GRP receptor [1]) was 16 ± 5.3 nM, the “Signaling Ca++ mobilization” value (GRP receptor [2]) was “ANTAG/no agonist effect” and the Receptor internalization (GRP receptor [3]; HEK-GRPR cells) was “Antag/no agonist”.

In the case of “[D-Phe^6, Leu-NHEt^13, des-Met^14]-bombesin(6-14) [GRPR-ANTAG, reference compound]”, the “antagonism of bombesin-induced GRP receptor internalization” value (GRP receptor [3]) is reported as “efficiently antagonized” and the “GRP receptor internalization, given alone” value (GRP receptor [3]) is reported as “no effect on GRP receptor internalization”.

With “^68Ga-DOTA-4-amino-1-carboxymethyl-piperidine-D-Phe-Gln-Trp-Ala-Val-Gly-His-Sta-Leu-NH2 [^68Ga-COMPOUND 2]” the “blocking of tumor contrast” value (PC-3 tumor [4]; [7]) was “effectively blocked”, the tumor contrast (PC-3 tumor [4]; 1 h after injection of 10 MBq) was “High tumor-contrast” and the “blocking of tumor contrast” value (LNCaP tumor; [7]) was “effectively blocked”. The tumor contrast (LNCaP tumor; 1 h after injection of 10 MBq) was “High tumor-contrast”.

With “^111In-DOTA-(15-amino-4,7,10,13-tetraoxapentadecanoic acid)-(4-amino-1-carboxy-methyl-piperidine)-D-Phe-Gln-Trp-Ala-Val-Gly-His-Sta-Leu-NH2 [^111In-Compound 5]” the “biodistribution, adrenal” value (PC-3 tumor [5]; 1 h) was 3.63 ± 0.53, the “biodistribution, blood” value (PC-3 tumor [5]; 1 h) was 0.75 ± 0.21 and the “biodistribution, bone” value (PC-3 tumor [5]; 1 h) was 0.34 ± 0.04. For the same molecule, the “biodistribution, heart” value (PC-3 tumor [5]; 1 h) was 0.28 ± 0.06, the “biodistribution, intestine” value (PC-3 tumor [5]; 1 h) was 2.39 ± 0.42 and the “biodistribution, kidney” value (PC-3 tumor [5]; 1 h) was 5.08 ± 0.72. The “biodistribution, liver” value (PC-3 tumor [5]; 1 h) was 0.40 ± 0.09, the “biodistribution, lung” value (PC-3 tumor [5]; 1 h) was 0.62 ± 0.15 and the “biodistribution, muscle” value (PC-3 tumor [5]; 1 h) was 0.19 ± 0.07. The “biodistribution, pancreas” value (PC-3 tumor [5]; 1 h) was 26.83 ± 4.34, the “biodistribution, pituitary” value (PC-3 tumor [5]; 1 h) was 9.02 ± 0.99 and the “biodistribution, spleen” value (PC-3 tumor [5]; 1 h) was 0.80 ± 0.28. The “biodistribution, stomach” value (PC-3 tumor [5]; 1 h) was 3.92 ± 1.26, the “biodistribution, tumor” value (PC-3 tumor [5]; 1 h) was 10.27 ± 0.36 and the “tumor:blood” value (PC-3 tumor [5]; 1 h) was 13.73. The “tumor:bone” value (PC-3 tumor [5]; 1 h) was 29.93, the “tumor:kidney” value (PC-3 tumor [5]; 1 h) was 2.02 and the “tumor:muscle” value (PC-3 tumor [5]; 1 h) was 53.65. The “tumor:pancreas” value (PC-3 tumor [5]; 1 h) was 0.38, the “biodistribution, adrenal” value (PC-3 tumor [5]; 4 h) was 0.68 ± 0.31 and the “biodistribution, blood” value (PC-3 tumor [5]; 4 h) was 0.03 ± 0.01. For the same molecule, the “biodistribution, bone” value (PC-3 tumor [5]; 4 h) was 0.08 ± 0.02, the “biodistribution, heart” value (PC-3 tumor [5]; 4 h) was 0.03 ± 0.01 and the “biodistribution, intestine” value (PC-3 tumor [5]; 4 h) was 0.17 ± 0.10. The “biodistribution, kidney” value (PC-3 tumor [5]; 4 h) was 2.04 ± 0.15, the “biodistribution, liver” value (PC-3 tumor [5]; 4 h) was 0.15 ± 0.05 and the “biodistribution, lung” value (PC-3 tumor [5]; 4 h) was 0.15 ± 0.19. For the same molecule, the “biodistribution, muscle” value (PC-3 tumor [5]; 4 h) was 0.02 ± 0.00, the “biodistribution, pancreas” value (PC-3 tumor [5]; 4 h) was 1.36 ± 0.81 and the “biodistribution, pituitary” value (PC-3 tumor [5]; 4 h) was 0.38 ± 0.16. For the same molecule, the “biodistribution, spleen” value (PC-3 tumor [5]; 4 h) was 0.09 ± 0.03, the “biodistribution, stomach” value (PC-3 tumor [5]; 4 h) was 0.87 ± 0.58 and the “biodistribution, tumor” value (PC-3 tumor [5]; 4 h) was 9.35 ± 0.73. For the same molecule, the “tumor:blood” value (PC-3 tumor [5]; 4 h) was 319.66, the “tumor:bone” value (PC-3 tumor [5]; 4 h) was 124.55 and the “tumor:kidney” value (PC-3 tumor [5]; 4 h) was 4.59. The “tumor:muscle” value (PC-3 tumor [5]; 4 h) was 475.17, the “tumor:pancreas” value (PC-3 tumor [5]; 4 h) was 6.90 and the “biodistribution, adrenal” value (PC-3 tumor [5]; 4 h blocking, 2000 fold) was 0.07 ± 0.02. The “biodistribution, blood” value (PC-3 tumor [5]; 4 h blocking, 2000 fold) was 0.02 ± 0.00, the “biodistribution, bone” value (PC-3 tumor [5]; 4 h blocking, 2000 fold) was 0.03 ± 0.03 and the “biodistribution, heart” value (PC-3 tumor [5]; 4 h blocking, 2000 fold) was 0.02 ± 0.00. For the same molecule, the “biodistribution, intestine” value (PC-3 tumor [5]; 4 h blocking, 2000 fold) was 0.03 ± 0.01, the “biodistribution, kidney” value (PC-3 tumor [5]; 4 h blocking, 2000 fold) was 1.76 ± 0.36 and the “biodistribution, liver” value (PC-3 tumor [5]; 4 h blocking, 2000 fold) was 0.14 ± 0.01. The “biodistribution, lung” value (PC-3 tumor [5]; 4 h blocking, 2000 fold) was 0.05 ± 0.01, the “biodistribution, muscle” value (PC-3 tumor [5]; 4 h blocking, 2000 fold) was 0.01 ± 0.00 and the “biodistribution, pancreas” value (PC-3 tumor [5]; 4 h blocking, 2000 fold) was 0.06 ± 0.02. The “biodistribution, pituitary” value (PC-3 tumor [5]; 4 h blocking, 2000 fold) was 0.23 ± 0.14, the “biodistribution, spleen” value (PC-3 tumor [5]; 4 h blocking, 2000 fold) was 0.06 ± 0.01 and the “biodistribution, stomach” value (PC-3 tumor [5]; 4 h blocking, 2000 fold) was 0.06 ± 0.01. For the same molecule, the “biodistribution, tumor” value (PC-3 tumor [5]; 4 h blocking, 2000 fold) was 0.61 ± 0.07, the “biodistribution, adrenal” value (PC-3 tumor [5]; 24 h) was 0.62 ± 0.16 and the “biodistribution, blood” value (PC-3 tumor [5]; 24 h) was 0.01 ± 0.00. For the same molecule, the “biodistribution, bone” value (PC-3 tumor [5]; 24 h) was 0.08 ± 0.02, the “biodistribution, heart” value (PC-3 tumor [5]; 24 h) was 0.02 ± 0.00 and the “biodistribution, intestine” value (PC-3 tumor [5]; 24 h) was 0.05 ± 0.02. The “biodistribution, kidney” value (PC-3 tumor [5]; 24 h) was 1.37 ± 0.22, the “biodistribution, liver” value (PC-3 tumor [5]; 24 h) was 0.11 ± 0.02 and the “biodistribution, lung” value (PC-3 tumor [5]; 24 h) was 0.51 ± 0.73. The “biodistribution, muscle” value (PC-3 tumor [5]; 24 h) was 0.02 ± 0.00, the “biodistribution, pancreas” value (PC-3 tumor [5]; 24 h) was 0.33 ± 0.05 and the “biodistribution, pituitary” value (PC-3 tumor [5]; 24 h) was 0.46 ± 0.52. The “biodistribution, spleen” value (PC-3 tumor [5]; 24 h) was 0.07 ± 0.01, the “biodistribution, stomach” value (PC-3 tumor [5]; 24 h) was 0.05 ± 0.01 and the “biodistribution, tumor” value (PC-3 tumor [5]; 24 h) was 6.33 ± 0.76. For the same molecule, the “tumor:blood” value (PC-3 tumor [5]; 24 h) was 1155.51, the “tumor:bone” value (PC-3 tumor [5]; 24 h) was 76.65 and the “tumor:kidney” value (PC-3 tumor [5]; 24 h) was 4.62. The “tumor:muscle” value (PC-3 tumor [5]; 24 h) was 364.92 and the “tumor:pancreas” value (PC-3 tumor [5]; 24 h) was 19.16.

In the case of “^177Lu-DOTA-Gly-4-aminobenzoyl-Gln-Trp-Ala-Val-Gly-His-Leu-Met-NH2 [Compound L70]”, the agonist/antagonist behaviour (GRP receptor [6]) is given as “behaved as an agonist”.
